± gives the uncertainty stated by the source.
B1: Nucleosome-remodeling factor subunit BPTF, residues 2862 to 2918; numbered along this chain, Q12830 (parent)
chain: TKKDTKLYCICKTPYDESKFYIGCDRCQNWYHGRCVGILQSEAELIDEYVCPQCQST

Variants of: B1
Test: abundance fitness (aPCA) (normalised: wild type 0, dead -1); higher = more abundant; growth selection in yeast, the domain comes from the species named
Conditions: Homo sapiens

TKKDTKLYCICKTPYDESKFYIGCDRCQNWYHGRCVGILKSEAELIDEYVCPQCQST and TKKDTKLYCICKTPYDESKFYIGCDRCQNWYHGRCVGILVSEAELIDEYVCPQCQST are within error of each other in abundance fitness: -0.214 ± 0.13 for the first, -0.19 ± 0.11 for the second.

TKKDTKLYCICKTPYDESKFYIGCDRCQNWYHGRCVGILNSEAELIDEYVCPQCQST and TKKDTKLYCICKTPYDESKFYIGCDRCQNWYHGRCVGILFSEAELIDEYVCPQCQST are within error of each other in abundance fitness: -0.296 ± 0.17 for the first, -0.201 ± 0.2 for the second.

Going from TKKDTKLYCICKTPYDESKFYIGCDRCQNWYHGRCVGILYSEAELIDEYVCPQCQST to TKKDTKLYCICKTPYDESKFYIGCDRCQNWYHGRCVGILSSEAELIDEYVCPQCQST, the abundance fitness rises from -0.306 ± 0.17 to -0.049 ± 0.078.

TKKDTKLYCICKTPYDESKFYIGCDRCQNWYHGRCVGILCSEAELIDEYVCPQCQST and TKKDTKLYCICKTPYDESKFYIGCDRCQNWYHGRCVGILESEAELIDEYVCPQCQST are within error of each other in abundance fitness: -0.12 ± 0.18 for the first, -0.036 ± 0.093 for the second.

TKKDTKLYCICKTPYDESKFYIGCDRCQNWYHGRCVGILGSEAELIDEYVCPQCQST and TKKDTKLYCICKTPYDESKFYIGCDRCQNWYHGRCVGILMSEAELIDEYVCPQCQST are within error of each other in abundance fitness: -0.062 ± 0.093 for the first, -0.244 ± 0.14 for the second.

TKKDTKLYCICKTPYDESKFYIGCDRCQNWYHGRCVGILASEAELIDEYVCPQCQST and TKKDTKLYCICKTPYDESKFYIGCDRCQNWYHGRCVGILTSEAELIDEYVCPQCQST are within error of each other in abundance fitness: -0.072 ± 0.093 for the first, -0.127 ± 0.14 for the second.

TKKDTKLYCICKTPYDESKFYIGCDRCQNWYHGRCVGILISEAELIDEYVCPQCQST and TKKDTKLYCICKTPYDESKFYIGCDRCQNWYHGRCVGILDSEAELIDEYVCPQCQST are within error of each other in abundance fitness: -0.378 ± 0.17 for the first, -0.126 ± 0.25 for the second.

TKKDTKLYCICKTPYDESKFYIGCDRCQNWYHGRCVGILLSEAELIDEYVCPQCQST and TKKDTKLYCICKTPYDESKFYIGCDRCQNWYHGRCVGILPSEAELIDEYVCPQCQST are within error of each other in abundance fitness: -0.282 ± 0.1 for the first, -0.2 ± 0.11 for the second.

Compared with TKKDTKLYCICKTPYDESKFYIGCDRCQNWYHGRCVGILHSEAELIDEYVCPQCQST, TKKDTKLYCICKTPYDESKFYIGCDRCQNWYHGRCVGILWSEAELIDEYVCPQCQST is lower in abundance fitness: 0.002 ± 0.17 for the first, -0.371 ± 0.12 for the second.

TKKDTKLYCICKTPYDESKFYIGCDRCQNWYHGRCVGIAQSEAELIDEYVCPQCQST and TKKDTKLYCICKTPYDESKFYIGCDRCQNWYHGRCVGIWQSEAELIDEYVCPQCQST are within error of each other in abundance fitness: -0.306 ± 0.39 for the first, -0.326 ± 0.45 for the second.

TKKDTKLYCICKTPYDESKFYIGCDRCQNWYHGRCVGIFQSEAELIDEYVCPQCQST and TKKDTKLYCICKTPYDESKFYIGCDRCQNWYHGRCVGISQSEAELIDEYVCPQCQST are within error of each other in abundance fitness: -0.006 ± 0.33 for the first, -0.024 ± 0.36 for the second.

TKKDTKLYCICKTPYDESKFYIGCDRCQNWYHGRCVGITQSEAELIDEYVCPQCQST and TKKDTKLYCICKTPYDESKFYIGCDRCQNWYHGRCVGIVQSEAELIDEYVCPQCQST are within error of each other in abundance fitness: -0.08 ± 0.39 for the first, -0.286 ± 0.26 for the second.

TKKDTKLYCICKTPYDESKFYIGCDRCQNWYHGRCVGIGQSEAELIDEYVCPQCQST and TKKDTKLYCICKTPYDESKFYIGCDRCQNWYHGRCVGIEQSEAELIDEYVCPQCQST are within error of each other in abundance fitness: -0.116 ± 0.31 for the first, 0.225 ± 0.48 for the second.

TKKDTKLYCICKTPYDESKFYIGCDRCQNWYHGRCVGIDQSEAELIDEYVCPQCQST and TKKDTKLYCICKTPYDESKFYIGCDRCQNWYHGRCVGIRQSEAELIDEYVCPQCQST are within error of each other in abundance fitness: -0.062 ± 0.39 for the first, -0.033 ± 0.34 for the second.

TKKDTKLYCICKTPYDESKFYIGCDRCQNWYHGRCVGIPQSEAELIDEYVCPQCQST and TKKDTKLYCICKTPYDESKFYIGCDRCQNWYHGRCVGILQMEAELIDEYVCPQCQST are within error of each other in abundance fitness: 0.102 ± 0.28 for the first, -0.137 ± 0.17 for the second.

TKKDTKLYCICKTPYDESKFYIGCDRCQNWYHGRCVGILQAEAELIDEYVCPQCQST and TKKDTKLYCICKTPYDESKFYIGCDRCQNWYHGRCVGILQGEAELIDEYVCPQCQST are within error of each other in abundance fitness: -0.146 ± 0.1 for the first, -0.105 ± 0.074 for the second.

TKKDTKLYCICKTPYDESKFYIGCDRCQNWYHGRCVGILQWEAELIDEYVCPQCQST and TKKDTKLYCICKTPYDESKFYIGCDRCQNWYHGRCVGILQHEAELIDEYVCPQCQST are within error of each other in abundance fitness: -0.207 ± 0.11 for the first, -0.152 ± 0.13 for the second.

TKKDTKLYCICKTPYDESKFYIGCDRCQNWYHGRCVGILQYEAELIDEYVCPQCQST and TKKDTKLYCICKTPYDESKFYIGCDRCQNWYHGRCVGILQNEAELIDEYVCPQCQST are within error of each other in abundance fitness: -0.132 ± 0.12 for the first, 0.038 ± 0.11 for the second.

Going from TKKDTKLYCICKTPYDESKFYIGCDRCQNWYHGRCVGILQEEAELIDEYVCPQCQST to TKKDTKLYCICKTPYDESKFYIGCDRCQNWYHGRCVGILQIEAELIDEYVCPQCQST, the abundance fitness falls from 0.017 ± 0.13 to -0.507 ± 0.14.

TKKDTKLYCICKTPYDESKFYIGCDRCQNWYHGRCVGILQQEAELIDEYVCPQCQST and TKKDTKLYCICKTPYDESKFYIGCDRCQNWYHGRCVGILQKEAELIDEYVCPQCQST are within error of each other in abundance fitness: -0.07 ± 0.13 for the first, -0.015 ± 0.15 for the second.

TKKDTKLYCICKTPYDESKFYIGCDRCQNWYHGRCVGILQTEAELIDEYVCPQCQST and TKKDTKLYCICKTPYDESKFYIGCDRCQNWYHGRCVGILQPEAELIDEYVCPQCQST are within error of each other in abundance fitness: 0.069 ± 0.1 for the first, -0.106 ± 0.12 for the second.

TKKDTKLYCICKTPYDESKFYIGCDRCQNWYHGRCVGILQDEAELIDEYVCPQCQST and TKKDTKLYCICKTPYDESKFYIGCDRCQNWYHGRCVGILQLEAELIDEYVCPQCQST are within error of each other in abundance fitness: -0.071 ± 0.16 for the first, -0.198 ± 0.086 for the second.

Compared with TKKDTKLYCICKTPYDESKFYIGCDRCQNWYHGRCVGILQREAELIDEYVCPQCQST, TKKDTKLYCICKTPYDESKFYIGCDRCQNWYHGRCVGILQCEAELIDEYVCPQCQST is lower in abundance fitness: 0.019 ± 0.071 for the first, -0.213 ± 0.13 for the second.

With TKKDTKLYCICKTPYDESKFYIGCDRCQNWYHGRCVGILQFEAELIDEYVCPQCQST the abundance fitness was -0.173 ± 0.12.
